{"source": "patent US20260241018A1", "about": "(BIOCYTOGEN PHARMACEUTICALS BEIJING, published 2026)", "biological_target": "T1, 5T4 on NCI-H226 cells, NCI-H2030 cells and HCC827 cells (UniProt Q13641 32-420, limits assumed)", "T1 construct": "whole, on cells", "T1 sequence (looked up)": "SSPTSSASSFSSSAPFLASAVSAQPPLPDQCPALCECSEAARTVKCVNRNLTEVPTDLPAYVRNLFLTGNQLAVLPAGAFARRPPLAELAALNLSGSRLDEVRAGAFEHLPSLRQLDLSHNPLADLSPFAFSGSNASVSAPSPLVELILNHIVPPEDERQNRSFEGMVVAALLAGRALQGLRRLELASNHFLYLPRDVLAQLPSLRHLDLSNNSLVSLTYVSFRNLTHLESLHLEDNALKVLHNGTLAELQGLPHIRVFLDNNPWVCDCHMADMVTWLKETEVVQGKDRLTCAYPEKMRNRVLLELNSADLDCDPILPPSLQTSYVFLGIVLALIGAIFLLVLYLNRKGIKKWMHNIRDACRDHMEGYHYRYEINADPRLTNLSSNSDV", "experiment": "flow cytometry on HCC827 cells, Alexa Fluor 647 anti-human IgG Fc secondary antibody, MFI", "protocol": "NCI-H226 cells, NCI-H2030 cells or HCC827 cells were plated in a 96-well plate at a density of 2×10⁵ cells/well. Serially diluted purified anti-5T4 antibody 32G1 or the positive control PF06263507 analog-SI (maximum concentration: 20 μg/mL, 2-fold dilutions, 12 gradients) were added to each well and were incubated at 4° C. for 30 minutes. Then, after one wash with PBS, the cells were incubated with the secondary antibody Alexa Fluor® 647 anti human IgG Fcγ (Jackson ImmunoResearch Laboratories, Inc., Cat #: 109-606-170) at 4° C. for 15 minutes before flow cytometry analysis.\nThe cells were collected, and the mean fluorescence intensity (MFI) was determined.", "data": [{"binder": "32G1 (antibody, V domains shown, also called anti-5T4 antibody 32G1) VH: QVQLVQSGGGLVKPGGSLRLSCVASGFTFSDYYMNWVRQAPGKGLEWISYVGTESIYTYYADTVKGRFTISRDNAKNSLYLQMNSLRAEDTALYYCARARDYNLYGMDVWGQGTTVTVSS VL: not shown", "values": [{"measurement": "EC50 (read off the curve)", "result": "~0.8", "unit": "µg/mL"}]}]}
